One test has as its target T1, BTN3A1 (Homo sapiens, UniProt O00481).
T1 construct: Fc (Fc-chimera); purchased R&D systems; host or cells: HEK293
Briefly: BTN isoform binding of yeast display antibodies (Octet isoform binding profile, binding affinity). As to conditions: Table 4; Yes/No; hIgG1-297A isotype. As to the method: (§1) De novo antibody discovery for butyrophilin isoforms was executed on pre-immune yeast display libraries. The soluble proteins used in the yeast display selections were biotinylated recombinant proteins of HEK293-expressed Fc-chimeras BTN2A2, BTN3A1, BTN3A2, and BTN3A3 from R&D systems. All proteins were analyzed before use by Biacore binding against control antibody anti-BTN Monoclonal Antibody (eBioBT3.1 (20.1, BT3.1), SEC, SDS-PAGE, and endotoxin.
(§2) Each biotinylated BTN isoform was subjected to pre-immune yeast display libraries for selections. The selections started with MACS (Magnetic Bead-based Cell Separation) cell separations for the first two rounds to enrich clones that bind to the targeted BTN isoforms, and applied fluorescence activated cell sorting (FACS) at later rounds to isolate clones that were with high affinity and isoform specificity. Due to the high sequence homology among all BTN isoforms, isoform-specific selection pressures were achieved by introducing ten-fold molar ratio of the non-biotinylated BTN isoforms to the biotinylated and selection-targeted BTN isoforms in the later rounds of the selections.
(§3) The isolated clones were then sequenced to identify the unique antibodies and screened for isoform binding profiles by Octet. To ensure the isolated antibodies have broad-epitopic coverage, all the antibodies were subjected to binning against the benchmark antibodies: BTN20.1 (Biolegend, agonist) and BTN103.2 (Creative Biolabs, antagonist). Purified antibodies were submitted for functional assay screening, as described below.
(§4) Given the sequence homology between BTN3A isoforms (>90%), this outcome is expected. Within all 105 antibodies from the BTN3A1 campaign and 125 antibodies from the BTN3A2 campaign, each antibody was characterized into one of the bins: Biolegend-bin, Creative-Biolabs-bin, Empty Set, or Overlapping.
(§5) Using the protocols described in detail in Example 2B and Example 3A, anti-BTN3A antibodies were screened for a functional role in T cell activation and reactivation of latent HIV. Antibody screens were conducted using HIV latent CD4+ T cells (prepared as described in Example 1A). T cell activation was quantified by production of IFNγ, and reactivation of latent HIV was quantified by luciferase assay. […] Detailed information on binding profile with binding affinity (KD) (Table 4) and antibody isotype and sequence (Table 5) are provided for two representative antibodies from each of the three functional categories observed.

The target in a further test is T2, BTN3A2 (Homo sapiens, UniProt P78410).
T2 construct: Fc (Fc-chimera); purchased R&D systems; host or cells: HEK293
Described as above. As to conditions: Table 4; Yes/No; hIgG1-297A isotype. As to the method:
as §1, §2, §3, §4, §5

Another test addresses T3, BTN3A3 (Homo sapiens, UniProt O00478).
T3 construct: Fc (Fc-chimera); purchased R&D systems; host or cells: HEK293
The test is described as above. As to conditions: Table 4; Yes/No; hIgG1-297A isotype. On the procedure:
as §1, §2, §3, §4, §5

The test system of test [1] is HIV latent primary CD4+ T cells. As to the kind of experiment: T cell activation by plate-coated anti-BTN3A antibody plus anti-CD3, IFNγ expression (V-PLEX). The format is cell-based, human. Particulars: production of IFNγ, with anti-CD3, Yes/No. As to the method: (§6) Latent HIV-1 infected primary CD4+ T cells were generated following a protocol licensed from the laboratory of Jonathan Karn (Case Western Reserve University, Cleveland, Ohio). Briefly, naive CD4^+ T cells isolated from 2 healthy human donors were propagated for 6 days in growth medium supplemented with Dynabeads Human T-Activator CD3/CD28 (25 μl/10^6 cells) and Th17 polarizing cytokines: TGF-β1 (5 ng/ml), IL-4 (10 ng/ml), IFNγ (10 ng/ml), IL-1β (10 ng/ml), IL-6 (30 ng/ml), IL-23 (50 ng/ml), IL-8 (15 ng/ml), IL-10 (10 ng/ml). […]. Reactivation of HIV-1 proviruses from latently infected cells was performed by treatment with Dynabeads Human T-Activator CD3/CD28 (25 μl/10^6 cells) or PMA/Ionomycin.
We next addressed if treatment with anti-BTN3A antibodies reverses BTN3A-mediated blockade in T cell activation. To assess this, sterile 96-well flat bottom tissue culture plates (Corning) were coated with various concentrations of anti-CD3 and anti-BTN3 20.1 antibodies (10 μg/ml, 3 μg/ml, 1 μg/ml, and 0.3 μg/ml) in PBS for 16 h in a 4° C. refrigerator. As controls, plates were coated with various concentrations of anti-CD3 antibody and isotype control antibody (10 μg/ml, 3 μg/ml, 1 μg/ml, and 0.3 μg/ml), anti-CD3 antibody alone, or isotype control antibody alone. The next day, antibodies were aspirated using a multichannel pipette and HIV latent primary CD4+ T cells from two donors were added to the antibody coated plates in duplicates at 125,000 cells/well in 200 ul of primary cell media (RPMI with 10% FBS, 50 μg/ml Primocin™). At 72 h following treatment T cell activation was measured based on IFNγ expression using a V-PLEX proinflammatory panel 1 human assay (Meso Scale Discovery, Rockville, Md.) (FIG. 4).
as §5

Test [2] deals with latent HIV in HIV latent primary CD4+ T cells. Briefly: Latent virus reactivation by plate-coated anti-BTN3A antibody plus anti-CD3, Nano-Glo Luciferase Assay. It counts as cell-based, HIV-1. As to conditions: with anti-CD3, Yes/No. On the procedure:
as §6
To assess if BTN3A modulation has impact on HIV latency reversal, sterile 96-well flat bottom tissue culture plates (Corning) were coated with various concentrations of anti-CD3 and anti-BTN3 20.1 antibodies (10 μg/ml, 3 μg/ml, 1 μg/ml, and 0.3 μg/ml) in PBS for 16h in a 4° C. refrigerator. As controls, plates were coated with various concentrations of anti-CD3 antibody and isotype control antibody (10 μg/ml, 3 μg/ml, 1 μg/ml, and 0.3 μg/ml), anti-CD3 antibody alone, or isotype control antibody alone. The next day, antibodies were aspirated using a multichannel pipette and HIV latent primary CD4+ T cells from two donors were added to the antibody coated plates in duplicates at 125,000 cells/well in 200 ul of primary cell media (RPMI with 10% FBS, 50 μg/ml Primocin™). At 24 h post treatment latent virus reactivation was measured using a Nano-Glo® Luciferase Assay (Promega) (FIG. 5).
as §5

T1 sequence (O00481 with tags, fused parts or gaps limits assumed): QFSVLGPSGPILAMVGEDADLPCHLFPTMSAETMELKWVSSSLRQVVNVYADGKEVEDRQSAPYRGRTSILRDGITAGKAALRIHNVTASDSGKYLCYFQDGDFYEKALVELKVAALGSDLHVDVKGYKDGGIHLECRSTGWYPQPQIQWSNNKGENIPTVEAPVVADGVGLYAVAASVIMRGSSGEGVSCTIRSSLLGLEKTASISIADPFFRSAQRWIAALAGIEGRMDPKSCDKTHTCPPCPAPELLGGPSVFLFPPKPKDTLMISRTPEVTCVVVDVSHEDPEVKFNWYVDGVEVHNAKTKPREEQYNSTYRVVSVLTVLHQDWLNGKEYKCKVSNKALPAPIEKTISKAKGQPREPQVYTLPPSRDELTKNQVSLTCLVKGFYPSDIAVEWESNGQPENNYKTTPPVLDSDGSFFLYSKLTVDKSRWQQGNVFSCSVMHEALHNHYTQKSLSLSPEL
T2 sequence (P78410 with tags, fused parts or gaps limits assumed): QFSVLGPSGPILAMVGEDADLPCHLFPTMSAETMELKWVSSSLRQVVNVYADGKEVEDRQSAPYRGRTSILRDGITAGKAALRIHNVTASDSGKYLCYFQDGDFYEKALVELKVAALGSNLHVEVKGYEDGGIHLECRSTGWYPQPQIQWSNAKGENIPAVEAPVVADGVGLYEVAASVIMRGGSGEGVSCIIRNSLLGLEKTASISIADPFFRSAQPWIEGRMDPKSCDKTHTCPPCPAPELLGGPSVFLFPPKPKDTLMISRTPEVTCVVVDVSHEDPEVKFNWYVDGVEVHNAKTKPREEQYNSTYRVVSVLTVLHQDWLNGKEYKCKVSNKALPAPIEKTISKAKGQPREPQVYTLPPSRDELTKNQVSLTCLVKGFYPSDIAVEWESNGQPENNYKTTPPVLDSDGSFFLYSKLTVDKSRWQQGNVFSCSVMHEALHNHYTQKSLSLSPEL
T3 sequence (O00478 with tags, fused parts or gaps limits assumed): as the sequence (P78410 with tags, fused parts or gaps limits assumed) above, with K37R, N120D, V123I, Q149K, N152D, A153T, E174A, G184S, E187G counted along it

B1: 1G (antibody, V domains shown)
VH: QVQLVQSGAEVKKPGASVKVSCKASGYTFTSYGISWVRQAPGQGLEWMGWISAYNGNTNYAQKLQGRVTMTTDTSTSTAYMELRSLRSDDTAVYYCARLGATVAYFDLWGRGTLVTVSS
VL: EIVLTQSPATLSVSPGERATLSCRASQSVSSNLAWYQQKPGQAPRLLIYGASTRATGIPARFSGSGSGTEFTLTISSLQSEDFAVYYCQQDVYWPFTFGGGTKVEIK
As for B1, the “BTN3A1 Binding” value with BTN3A1 is recorded as “Yes”. Besides, the “BTN3A2 Binding” value with BTN3A2 is “Yes”. Further, the “BTN3A3 Binding” value with BTN3A3 is given as “Yes”. The “Antibody function T cell activation” value in test [1] was “Yes”. In addition, the “Antibody function HIV reactivation” value in test [2] is given as “No”.

B2: 3B (antibody, V domains shown)
VH: QVQLVQSGAEVKKPGASVKVSCKASGYTFTSYYMHWVRQAPGQGLEWMGIINPSGGSTSYAQKFQGRVTMTRDTSTSTVYMELSSLRSEDTAVYYCARPSGDYSGYDALDVWGQGTMVTVSS
VL: EIVLTQSPATLSLSPGERATLSCRASQSVSSYLAWYQQKPGQAPRLLIYDASNRATGIPARFSGSGSGTDFTLTISSLEPEDFAVYYCQQDPYWPITFGGGTKVEIK
As for B2, the “BTN3A1 Binding” value with BTN3A1 is given as “Yes”. Also, the “BTN3A2 Binding” value with BTN3A2 is on record as “Yes”. Moreover, the “BTN3A3 Binding” value with BTN3A3 is “Yes”. The “Antibody function T cell activation” value in test [1] is “Yes”. Further, the “Antibody function HIV reactivation” value in test [2] is “Yes”.

B3: 2A (antibody, V domains shown)
VH: QVQLVQSGAEVKKPGASVKVSCKASGYTFTSYYIHWVRQAPGQGLEWMGIINPSGGSTSYAQKFQGRVTMTRDTSTSTVYMELSSLRSEDTAVYYCARATWEALHYWGQGTLVTVSS
VL: EIVMTQSPATLSVSPGERATLSCRASQSVGSNLAWYQQKPGQAPRLLIYGASTRATGIPARFSGSGSGTEFTLTISSLQSEDFAVYYCQQYYAWPRTFGGGTKVEIK
For B3, the “BTN3A1 Binding” value with BTN3A1 is recorded as “Yes”. For the same molecule, in the test with BTN3A2, the “BTN3A2 Binding” value was “No”. In the test with BTN3A3, the “BTN3A3 Binding” value was “Yes”. The “Antibody function T cell activation” value in test [1] is given as “No”. For the same molecule, the “Antibody function HIV reactivation” value in test [2] was “Yes”.

B4: 3A (antibody, V domains shown)
VH: QVQLVQSGAEVKKPGASVKVSCKASGYTFTSYYMHWVRQAPGQGLEWMGIINPGGGSTSYAQKFQGRVTMTRDTSTSTVYMELSSLRSEDTAVYYCARDAGHDYGDMAYWGQGTLVTVSS
VL: DIQMTQSPSTLSASVGDRVTITCRASQSISSWLAWYQQKPGKAPKLLIYKASSLESGVPSRFSGSGSGTEFTLTISSLQPDDFATYYCQQYRSFPTFGGGTKVEIK
Consider B4, for which the “BTN3A1 Binding” value with BTN3A1 is “Yes”. For the same molecule, the “BTN3A2 Binding” value in the test with BTN3A2 is recorded as “No”. In the test with BTN3A3, the “BTN3A3 Binding” value is listed as “Yes”. In addition, in test [1], the “Antibody function T cell activation” value is “Yes”. Besides, in test [2], the “Antibody function HIV reactivation” value was “Yes”.

The record behind these values is US20220064291A1, “METHODS OF USING BUTYROPHILIN ANTIBODIES FOR TREATING HIV INFECTION” (Merck Sharp & Dohme Corp., priority 2018, published 2022).
